According to article PMC6755802:

Molecular target: IL-2 binary complex stapler scFv, recombinantly expressed (human)
Assay: SPR; biotinylated scFv immobilised on Biacore SA chip at low density; analytes flowed 60 s; complexes pre-incubated 30 min at room temperature; 25 °C; HBS-P+ with 0.2% BSA; KD from equilibrium titration, 1:1 model; in Fig. 1D all proteins at 60 μM

Kd: 0.21 µM
Substance: Super-2/IL-2Rβ binary complex (from UniProt P60568 21-153; P14784 27-240)
